Assay results reported in patent US20250145711A1 (Janssen / Centocor, published 2025).

T1: Human CD79b long isoform, recombinant extracellular domain (CD9W8.001) (human, UniProt P40259 29-159)
T1 construct: extracellular domain; also called hu CD79b long
T1 sequence (looked up): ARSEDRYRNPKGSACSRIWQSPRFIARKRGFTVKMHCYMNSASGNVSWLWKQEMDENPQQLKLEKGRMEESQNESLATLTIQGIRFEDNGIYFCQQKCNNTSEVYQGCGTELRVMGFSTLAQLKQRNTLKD

T2: Human CD79b short isoform, recombinant extracellular domain (CD9W7.001) (human, UniProt P40259 29-159)
T2 chain: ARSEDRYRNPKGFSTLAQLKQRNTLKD

T3: Human CD79b, endogenous on diffuse large B-cell lymphoma cell lines (human, UniProt P40259 29-229)
T3 construct: On HBL-1, OCI-LY10 and Carnaval cells, which also carry CD20; also called Igβ
T3 sequence: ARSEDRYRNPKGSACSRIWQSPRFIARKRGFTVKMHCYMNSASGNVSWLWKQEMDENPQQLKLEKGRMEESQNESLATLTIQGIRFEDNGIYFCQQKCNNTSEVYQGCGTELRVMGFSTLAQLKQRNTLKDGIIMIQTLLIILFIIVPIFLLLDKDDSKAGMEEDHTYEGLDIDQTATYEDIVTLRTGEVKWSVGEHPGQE


Legend:
[1] = target: T1, Human CD79b long isoform, recombinant …; assay: SPR Biacore 8K, antibody captured by anti-human Fc, CD79b in solution, 25 C, 1:1 Langmuir
Protocol: (§1) General Protocol for SPR Affinity Assessment: Affinity assessment of the bispecific and trispecific constructs against human CD79b were measured using recombinantly expressed extracellular domain of CD79b short and long isoforms (CD9W7.001 and CD9W8.001, respectively) by Surface Plasmon Resonance (SPR) using a Biacore 8 k SPR system (Biacore) at 25° C. in HBSP+ buffer. Cross-reactivity of the same antibody panel was also assessed against cyno and mouse antigens (CD9W1.001 and CD9W105.001, respectively). Briefly, a C1 sensor chip was immobilized with anti-human Fc (target immobilization levels of >400 RU) using vendor recommended amino coupling protocol. The test antibodies were captured through immobilized anti-Fc and was followed by the injection of different CD79b constructs at different concentration series (human CD79b short and long isoforms: 30 nM-0.37 nM at 3-fold dilutions; cyno and mouse CD79b: 3000 nM-37 nM at 3-fold dilutions). The association and dissociation phases were measured for 2 or 3 minutes and 30 minutes, respectively.
(§2) The raw binding sensorgrams were processed using Biacore Insight software (Biacore) by double-referencing and the processed sensorgrams were analyzed for cross-reactivity and fitted to a 1:1 Langmuir model to obtain on-rates, off-rates and affinities.

[2] = target: T2, Human CD79b short isoform, recombinant …; assay: as above
Protocol: as §1, §2

[3] = target: T3, Human CD79b, endogenous on diffuse …; assay: flow cytometry on HBL-1 cells (endogenous CD79b and CD20; the trispecific also has a CD20 arm)
[4] = target: T3, Human CD79b, endogenous on diffuse …; assay: flow cytometry on Carnaval cells (endogenous CD79b and CD20; the trispecific also has a CD20 arm)
[5] = target: T3, Human CD79b, endogenous on diffuse …; assay: flow cytometry on OCI-LY10 cells (endogenous CD79b and CD20; the trispecific also has a CD20 arm)

Row | Kd [1] [nM] | Kd [2] [nM] | EC50 [3] [nM] | EC50 [4] [nM] | EC50 [5] [nM] | Binder
1 | 0.023 | 0.39 | 52 | 23 | 66 | C923B74 (other, Trispecific IgG1 antibody; HC1/LC form the CD79b Fab; HC2 is CD3 scFv-Fc-linker-CD20 scFv; also called CD79bxCD20xCD3 trispecific; CD9B330-N31S / CD3B2030-N106A-scFv-LH-C20B22) heavy: QVQLQQSGPGLVKPSQTLSLTCAISGDSVSSNSATWNWIRQSPSRGLEWLGRTYYRSKWYNDYTVSVKSRITINPDTSKNQFSLQLNSVTPEDTAVYYCTRVDIAFDYWGQGTLVTVSSASTKGPSVFPLAPSSKSTSGGTAALGCLVKDYFPEPVTVSWNSGALTSGVHTFPAVLQSSGLYSLSSVVTVPSSSLGTQTYICNVNHKPSNTKVDKKVEPKSCDKTHTCPPCPAPEAAGGPSVFLFPPKPKDTLMISRTPEVTCVVVSVSHEDPEVKFNWYVDGVEVHNAKTKPREEQYNSTYRVVSVLTVLHQDWLNGKEYKCKVSNKALPAPIEKTISKAKGQPREPQVYTLPPSREEMTKNQVSLSCAVKGFYPSDIAVEWESNGQPENNYKTTPPVLDSDGSFFLVSKLTVDKSRWQQGNVFSCSVMHEALHNRFTQKSLSLSPGK light: QTVVTQPPSVSEAPRQRVTISCSGSSSNIGNHGVNWYQQLPGKAPKLLIYNDDLLPSGVSDRFSGSTSGTSGSLAISGLQSEDEADYYCAAWDDSLNGVVFGGGTKLTVLGQPKAAPSVTLFPPSSEELQANKATLVCLISDFYPGAVTVAWKADSSPVKAGVETTTPSKQSNNKYAASSYLSLTPEQWKSHRSYSCQVTHEGSTVEKTVAPTECS EIVLTQSPATLSASPGERVTLSCSASSSVSYMNWYQQKPGQAPRRWIYDSSKLASGVPARFSGSGSGRDYTLTISSLEPEDFAVYYCQQWSRNPPTFGGGTKVEIKGGSEGKSSGSGSESKSTGGSQVQLVQSGAEVKKPGSSVKVSCKASGYTFTRSTMHWVKQAPGQGLEWIGYINPSSAYTNYNQKFQGRVTLTADKSTSTAYMELSSLRSEDTAVYYCASPQVHYDYAGFPYWGQGTLVTVSSEPKSSDKTHTCPPCPAPEAAGGPSVFLFPPKPKDTLMISRTPEVTCVVVSVSHEDPEVKFNWYVDGVEVHNAKTKPREEQYNSTYRVVSVLTVLHQDWLNGKEYKCKVSNKALPAPIEKTISKAKGQPREPQVYTLPPSREEMTKNQVSLWCLVKGFYPSDIAVEWESNGQPENNYKTTPPVLDSDGSFFLYSKLTVDKSRWQQGNVFSCSVMHEALHNHYTQKSLSLSPGKGGSEGKSSGSGSESKSTGGSAIQLTQSPSSLSASVGDRVTITCRASSSVSYIHWFQQKPGKAPKPLIYATSNLASGVPSRFSGSGSGTDFTLTISSLQPEDFATYYCQQWTSNPPTFGQGTKLEIKGGSEGKSSGSGSESKSTGGSQVQLVQSGAEVKKPGSSVKVSCKASGYTFTSYNMHWVRQAPGQGLEWMGAIYPGNGDTSYAQKFQGRVTITADKSTSTAYMELSSLRSEDTAVYYCARSTYYGGDWYFNVWGQGTLVTVSS
2 | 0.04 | 0.27 | 8 | 6 | 2 | C923B99 (other, Trispecific IgG1 antibody; HC1/LC form the CD79b Fab; HC2 is CD3 scFv-Fc-linker-CD20 scFv; also called CD79bxCD20xCD3 trispecific; CD9B643 / CD3B2030-N106A-scFv-LH-C20B22) heavy: QVQLQESGPGLVKPSQTLSLTCTVSGVSISNYYWSWIRQPPGKGLEWIGRISPSGRTNYNPSLKSRVTMSLDASKNQFSLKLSSVTAADTAVYYCARGEYSGTYSYSFDIWGQGTMVTVSSASTKGPSVFPLAPSSKSTSGGTAALGCLVKDYFPEPVTVSWNSGALTSGVHTFPAVLQSSGLYSLSSVVTVPSSSLGTQTYICNVNHKPSNTKVDKKVEPKSCDKTHTCPPCPAPEAAGGPSVFLFPPKPKDTLMISRTPEVTCVVVSVSHEDPEVKFNWYVDGVEVHNAKTKPREEQYNSTYRVVSVLTVLHQDWLNGKEYKCKVSNKALPAPIEKTISKAKGQPREPQVYTLPPSREEMTKNQVSLSCAVKGFYPSDIAVEWESNGQPENNYKTTPPVLDSDGSFFLVSKLTVDKSRWQQGNVFSCSVMHEALHNRFTQKSLSLSPGK light: DIQMTQSPSSLSASVGDRVTITCRSSQSLFDSDDGNTYLDWFQQKPGQSPKLLIQTLSYRASGVPSRFSGSGSGTDFTLTISSLQPEDFATYYCMQRMEFPLTFGGGTKVEIKRTVAAPSVFIFPPSDEQLKSGTASVVCLLNNFYPREAKVQWKVDNALQSGNSQESVTEQDSKDSTYSLSSTLTLSKADYEKHKVYACEVTHQGLSSPVTKSFNRGEC EIVLTQSPATLSASPGERVTLSCSASSSVSYMNWYQQKPGQAPRRWIYDSSKLASGVPARFSGSGSGRDYTLTISSLEPEDFAVYYCQQWSRNPPTFGGGTKVEIKGGSEGKSSGSGSESKSTGGSQVQLVQSGAEVKKPGSSVKVSCKASGYTFTRSTMHWVKQAPGQGLEWIGYINPSSAYTNYNQKFQGRVTLTADKSTSTAYMELSSLRSEDTAVYYCASPQVHYDYAGFPYWGQGTLVTVSSEPKSSDKTHTCPPCPAPEAAGGPSVFLFPPKPKDTLMISRTPEVTCVVVSVSHEDPEVKFNWYVDGVEVHNAKTKPREEQYNSTYRVVSVLTVLHQDWLNGKEYKCKVSNKALPAPIEKTISKAKGQPREPQVYTLPPSREEMTKNQVSLWCLVKGFYPSDIAVEWESNGQPENNYKTTPPVLDSDGSFFLYSKLTVDKSRWQQGNVFSCSVMHEALHNHYTQKSLSLSPGKGGSEGKSSGSGSESKSTGGSAIQLTQSPSSLSASVGDRVTITCRASSSVSYIHWFQQKPGKAPKPLIYATSNLASGVPSRFSGSGSGTDFTLTISSLQPEDFATYYCQQWTSNPPTFGQGTKLEIKGGSEGKSSGSGSESKSTGGSQVQLVQSGAEVKKPGSSVKVSCKASGYTFTSYNMHWVRQAPGQGLEWMGAIYPGNGDTSYAQKFQGRVTITADKSTSTAYMELSSLRSEDTAVYYCARSTYYGGDWYFNVWGQGTLVTVSS
